For the assay, the target named is human α-thrombin (human) (UniProt P00734). As to the kind of experiment: enzyme inhibition assay (chromogenic thrombin amidolytic activity); 0.14 nM human α-thrombin, 100 μM N-(p-Tosyl)-GPR-pNA, varying concentrations of inhibitor; 50 mM Tris-HCl, 50 mM NaCl, pH 8; absorption at 405 nm; Ki from a Morrison equation.

Consider eight substances from article PMC9481576.

The Ki is the equilibrium dissociation constant of an inhibitor or competing ligand from its target. Read a high Ki as a looser hold on the target. “chimadanin sulfated at both Tyr28 and Tyr31 (natural protein)” came in with a Ki of 0.1 nM.

“chimadanin with sTyr at Tyr28 (natural protein)” displayed an inhibition constant (Ki) of 0.6 nM. Then “chimadanin with sTyr at Tyr31 (natural protein)”, with 1.5 nM; and “madanin-1 sulfated at both Tyr32 and Tyr35 (natural protein)”, with 0.5 nM; and “madanin-1 with sTyr at Tyr32 (natural protein)”, with 1.3 nM. Next, “madanin-1 with sTyr at Tyr35 (natural protein)”: 6.1 nM; wildtype chimadanin (natural protein): 12.9 nM.

wildtype madanin-1 (natural protein) gave an inhibition constant (Ki) of 16 nM.
